# According to PMC7703752, “Proteome-level assessment of origin, prevalence and function of leucine-aspartic acid (LD) motifs” (Bioinformatics, 2019):
# Where no end group is shown, it is not given here. The star is where a group is joined. FITC = O=C1OC2(c3ccc(O)cc3Oc3cc(O)ccc32)c2ccc(NC(=S)*)cc21; Ahx = NCCCCCC(=O)O
# B1: NCOA2 (nuclear receptor coactivator 2) LD motif peptide (peptide)
# peptide: SELDNLEEILDDLQNSQ
# modifications: also: N-terminal FITC-Ahx only in labelled form
# B2: LPP (Lipoma-preferred partner) LD motif peptide (peptide)
# peptide: AEIDSLTSILADLESS
# modifications: also: also used as N-terminal FITC-Ahx-labelled form
# B3: LPP LD motif peptide, unlabelled (peptide)
# peptide: AEIDSLTSILADLESS
# notes: Lipoma-preferred partner, human; core motif 123-132; form without label, used in ACA, DSF and NMR; also called lipoma-preferred partner peptide; source: synthetic peptide, bought: GenScript
# B4: C16orf71 LD motif peptide (peptide)
# peptide: EAWDLDDILQSLQGQ
# modifications: also: N-terminal FITC-Ahx only in labelled form
# notes: predicted LD motif of human C16orf71; also called CP071; source: synthetic peptide, bought: GenScript
# B5: CCDC158 (Coiled-coil domain-containing protein 158) LD motif peptide (peptide)
# peptide: DPTRDLKQLLQELRSVIN
# modifications: also: N-terminal FITC-Ahx only in labelled form
# B6: CCDC158 LD motif peptide, unlabelled (peptide)
# peptide: DPTRDLKQLLQELRSVIN
# notes: core motif 903-912; form without label, used in ACA, DSF and NMR; also called CD158; source: synthetic peptide, bought: GenScript
# B7: LPP (Lipoma-preferred partner) LD motif peptide (peptide)
# peptide: AEIDSLTSILADLESS
# modifications: also: N-terminal FITC-Ahx only in labelled form
# notes: predicted LD motif of human LPP (Lipoma-preferred partner); source: synthetic peptide, bought: GenScript
# B8: PPP2R3A LD motif peptide (peptide)
# peptide: SQEEIDKLLMDLESFSQ
# modifications: also: N-terminal FITC-Ahx only in labelled form
# B9: LPP LD motif peptide, FITC-Ahx-labelled (peptide)
# peptide: {FITC-Ahx}-AEIDSLTSILADLESS
# notes: Lipoma-preferred partner, human; core motif 123-132; labelled form, used in direct anisotropy and MST; source: synthetic peptide, bought: GenScript
# B10: EPB41L5 LD motif peptide, FITC-Ahx-labelled (peptide)
# peptide: {FITC-Ahx}-ATDELDALLASLTENLID
# notes: Band 4.1-like protein 5, human; core motif 634-643; labelled form, used in direct anisotropy and MST; also called E41L5; source: synthetic peptide, bought: GenScript
# B11: CCDC158 LD motif peptide, FITC-Ahx-labelled (peptide)
# peptide: {FITC-Ahx}-DPTRDLKQLLQELRSVIN
# notes: core motif 903-912; labelled form, used in direct anisotropy and MST; also called CD158; source: synthetic peptide, bought: GenScript
# B12: CAST LD motif peptide (peptide)
# peptide: DAALDDLIDTLGGP
# modifications: also: N-terminal FITC-Ahx only in labelled form
# B13: Paxillin LD4 peptide (peptide)
# peptide: SASSATRELDELMASLSD
# modifications: also: N-terminal FITC-Ahx only in labelled form
# B14: EPB41L5 LD motif peptide, unlabelled (peptide)
# peptide: ATDELDALLASLTENLID
# notes: Band 4.1-like protein 5, human; core motif 634-643; form without label, used in ACA, DSF and ITC; also called E41L5; Band 4.1-like protein 5 peptide; source: synthetic peptide, bought: GenScript
# B15: RALGAPA1 LD motif peptide, unlabelled (peptide)
# peptide: EDVLDELLQYLGVT
# notes: core motif 1680-1689; form without label, used in ACA and DSF; also called RGPA1; source: synthetic peptide, bought: GenScript
# B16: CREB3 LD motif peptide (peptide)
# peptide: SDWEVDDLLCSLLSPPA
# modifications: also: N-terminal FITC-Ahx only in labelled form
# B17: NCOA3 (nuclear receptor coactivator 3) LD motif peptide (peptide)
# peptide: GDLDNLDAILGDLTSSD
# modifications: also: N-terminal FITC-Ahx only in labelled form
# B18: C16orf71 LD motif peptide, unlabelled (peptide)
# peptide: EAWDLDDILQSLQGQ
# notes: Uncharacterized protein C16orf71, human; core motif 267-276; form without label, used in ACA and DSF; also called CP071; source: synthetic peptide, bought: GenScript
# B19: PPP2R3A LD motif peptide, unlabelled (peptide)
# peptide: SQEEIDKLLMDLESFSQ
# notes: Serine/threonine-protein phosphatase 2A regulatory subunit B'' subunit alpha, human; core motif 508-517; form without label, used in ACA, DSF and ITC; source: synthetic peptide, bought: GenScript
# B20: PPP2R3A LD motif peptide, FITC-Ahx-labelled (peptide)
# peptide: {FITC-Ahx}-SQEEIDKLLMDLESFSQ
# notes: Serine/threonine-protein phosphatase 2A regulatory subunit B'' subunit alpha, human; core motif 508-517; labelled form, used in direct anisotropy and MST; source: synthetic peptide, bought: GenScript
# Assays:
# [1] = biological target: T1, Human α-parvin-CHC (residues 242–372) (human, UniProt Q9NVD7 242-372); assay: MST
# T1 chain: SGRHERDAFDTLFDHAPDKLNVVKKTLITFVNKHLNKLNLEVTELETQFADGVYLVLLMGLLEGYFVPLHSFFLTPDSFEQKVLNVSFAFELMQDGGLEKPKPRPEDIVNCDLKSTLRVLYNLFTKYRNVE
# [2] = biological target: T2, FAT domain of human FAK (892–1052) (human, UniProt Q05397 892-1052); assay: FP
# T2 chain: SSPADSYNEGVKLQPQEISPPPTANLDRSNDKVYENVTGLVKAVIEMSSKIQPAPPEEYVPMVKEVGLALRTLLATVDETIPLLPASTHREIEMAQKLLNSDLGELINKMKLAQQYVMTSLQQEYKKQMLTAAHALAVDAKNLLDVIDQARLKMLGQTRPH
# [3] = biological target: T3, Human α-parvin-CHC (residues 242-372) (human, UniProt Q9NVD7 242-372); assay: fluorescence polarisation + other: differential scanning fluorimetry; the 'qualitative' methods, summed up in one sentence for each peptide: anisotropy competition (unlabelled peptide at 100 and 250 μM against 0.1 μM FITC-Ahx-LD4 with 10 μM FAT or 25 μM α-parvin) and DSF (10 μM protein, peptide at 100 and 250 μM; 20 mM HEPES pH 7.5, 150 mM NaCl, 2 mM EDTA, 1 mM TCEP); conditions: both partners purified
# T3 construct: α-parvin, human, C-terminal CH domain, residues 242-372; also called second CH domain of α-parvin; source: E. coli BL21, expressed as GST-fusion protein (pGex 6P1), purified as described previously (Lorenz et al., 2008)
# T3 sequence (looked up): T1 chain
# [4] = biological target: T1, Human α-parvin-CHC (residues 242–372); assay: FP
# [5] = biological target: T2, FAT domain of human FAK (892–1052); assay: MST
# [6] = biological target: T4, FAT domain of human FAK (892–1052) (human, UniProt Q05397 892-1052); assay: fluorescence polarisation + MST + ITC + other: differential scanning fluorimetry; synthesized peptides against recombinant LDBDs in vitro; direct anisotropy with labelled candidate peptides, anisotropy competition of unlabelled peptides against fluorescently labelled known LD motifs, ITC, MST and DSF summed up together; 25°C, 20 mM HEPES pH 7.5, 150 mM NaCl, 2 mM EDTA, 1 mM TCEP, unless stated otherwise; conditions: both partners purified
# T4 construct: focal adhesion kinase (FAK), human, FAT domain, residues 892-1052; 15N-labelled for the NMR titrations; Purification and fate of the GST are told only in the Supplementary Material and in the cited work (Arold et al., 2002); also called FAK FAT; four-helix FAT domain from FAK; source: E. coli BL21, expressed as GST-fusion protein
# T4 sequence (looked up): T2 chain
# [7] = biological target: T5, Human α-parvin-CHC (residues 242–372) (human, UniProt Q9NVD7 242-372); assay: as above; conditions: both partners purified
# T5 construct: α-parvin, human, second CH domain (CHC), residues 242-372; Purification and fate of the GST are told only in the Supplementary Material and in the cited work (Lorenz et al., 2008); also called second CH domain of α-parvin; source: E. coli BL21, expressed as GST-fusion protein
# T5 sequence (looked up): T1 chain
# [8] = biological target: T6, FAT domain of human FAK (892-1052) (human, UniProt Q05397 892-1052); assay: fluorescence polarisation + other: differential scanning fluorimetry; the 'qualitative' methods, summed up in one sentence for each peptide: anisotropy competition (unlabelled peptide at 100 and 250 μM against 0.1 μM FITC-Ahx-LD4 with 10 μM FAT or 25 μM α-parvin) and DSF (10 μM protein, peptide at 100 and 250 μM; 20 mM HEPES pH 7.5, 150 mM NaCl, 2 mM EDTA, 1 mM TCEP); conditions: both partners purified
# T6 construct: focal adhesion kinase (FAK), human, FAT domain, residues 892-1052; 15N-labelled (M9 minimal medium) in the NMR titrations; also called FAK FAT; focal adhesion targeting domain; source: E. coli BL21, expressed as GST-fusion protein (pGexP2), purified as described previously (Arold et al., 2002)
# T6 sequence (looked up): T2 chain
# [9] = biological target: T3, Human α-parvin-CHC (residues 242-372); assay: as above; conditions: both partners purified; remark: listed apart in the source
# [10] = biological target: T2, FAT domain of human FAK (892–1052); assay: ITC
# [11] = biological target: T6, FAT domain of human FAK (892-1052); assay: fluorescence polarisation + MST; the 'quantitative' methods, summed up in one sentence for each peptide: direct anisotropy (protein serially diluted, FITC-Ahx peptide 0.1 μM; 20 mM HEPES pH 7.5, 150 mM NaCl, 2 mM EDTA, 2 mM DTT, 0.005% Tween-20; room temperature) and MST (protein diluted from 560 μM FAT or 530 μM α-parvin, labelled peptide 0.1 μM, 0.05% Tween-20, 25 °C); ITC in selected cases; conditions: both partners purified
# [12] = biological target: T3, Human α-parvin-CHC (residues 242-372); assay: as above; conditions: both partners purified
# [13] = biological target: T6, FAT domain of human FAK (892-1052); assay: as above; conditions: both partners purified; remark: listed apart in the source
# [14] = biological target: T6, FAT domain of human FAK (892-1052); assay: fluorescence polarisation + other: differential scanning fluorimetry; the 'qualitative' methods, summed up in one sentence for each peptide: anisotropy competition (unlabelled peptide at 100 and 250 μM against 0.1 μM FITC-Ahx-LD4 with 10 μM FAT or 25 μM α-parvin) and DSF (10 μM protein, peptide at 100 and 250 μM; 20 mM HEPES pH 7.5, 150 mM NaCl, 2 mM EDTA, 1 mM TCEP); conditions: both partners purified; remark: listed apart in the source
binder,measurement,setting,value
B1,Kd,[1],251 µM
B2,Kd,[2],97.4 µM
same,Kd,[1],169 µM
B3,binding result,[3],binds
B4,Kd,[4],52 µM
same,Kd,[5],17.2 µM
same,Kd,[1],32.3 µM
same,binding result,[6],binds
same,binding result,[7],binds
B5,Kd,[2],41.6 µM
B6,binding result,[8],binds
same,binding result,[9],binds
B7,binding result,[7],binds
B8,Kd,[2],41 µM
same,Kd,[4],23.3 µM
same,Kd,[10],19.7 µM
same,Kd,[5],90 µM
B9,binding result,[11],binds
same,binding result,[12],binds
B10,binding result,[11],binds
same,binding result,[12],binds
B11,binding result,[13],binds
B12,Kd,[5],178 µM
same,Kd,[1],273 µM
B13,Kd,[2],7.1 µM
same,Kd,[4],24.5 µM
same,Kd,[10],19.7 µM
same,Kd,[5],55.5 µM
same,Kd,[1],3.1 µM
B14,binding result,[14],binds
same,binding result,[3],binds
B15,binding result,[14],binds
same,binding result,[3],binds
B16,Kd,[4],101 µM
same,Kd,[1],110 µM
B17,Kd,[5],261 µM
B18,binding result,[8],binds
same,binding result,[9],binds
B19,binding result,[14],binds
same,binding result,[3],binds
B20,binding result,[11],binds
same,binding result,[12],binds
